B1: GST-h-importin α3 (KPNA4, Qip1) (natural protein)
chain: MADNEKLDNQRLKNFKNKGRDLETMRRQRNEVVVELRKNKRDEHLLKRRNVPHEDICEDSDIDGDYRVQNTSLEAIVQNASSDNQGIQLSAVQAARKLLSSDRNPPIDDLIKSGILPILVHCLERDDNPSLQFEAAWALTNIASGTSEQTQAVVQSNAVPLFLRLLHSPHQNVCEQAVWALGNIIGDGPQCRDYVISLGVVKPLLSFISPSIPITFLRNVTWVMVNLCRHKDPPPPMETIQEILPALCVLIHHTDVNILVDTVWALSYLTDAGNEQIQMVIDSGIVPHLVPLLSHQEVKVQTAALRAVGNIVTGTDEQTQVVLNCDALSHFPALLTHPKEKINKEAVWFLSNITAGNQQQVQAVIDANLVPMIIHLLDKGDFGTQKEAAWAISNLTISGRKDQVAYLIQQNVIPPFCNLLTVKDAQVVQVVLDGLSNILKMAEDEAETIGNLIEECGGLEKIEQLQNHENEDIYKLAYEIIDQFFSSDDIDEDPSLVPEAIQGGTFGFNSSANVPTEGFQF
notes: human importin α3 (KPNA4, Qip1); plasmid pGEX2T-human-importin α3, obtained as described previously; also called GST-importin α3; IMPα3; source: E. coli Rosetta, purified on GSH beads, bacterially expressed and purified recombinant protein
B2: FLAG-h-importin α8 (KPNA7) (natural protein)
chain: not shown
notes: human importin α8 (KPNA7), amplified from pcDNA5/3xFLAG-h-importin α8 with primers from the start codon to the stop codon, in pGEX6P3; Cleavage of GST is told in general in the methods; also called FLAG-importin α8; IMPα8; source: E. coli Rosetta, GST fusion purified on GSH beads, bacterially expressed and purified recombinant protein; not shown: FLAG, N-terminal, kept
B3: SV40TNLS-GFP (domain or fragment)
chain: PPKKKRKVED
notes: also called SV40TNLS substrate; SV40 large T antigen NLS

Assays:
Details in all cases: both partners purified
[1] = molecular target: FLAG-h-importin α1 (KPNA2) (human, UniProt P52292 1-529); test: pull-down; GST-h-importin α3 (50 pmol) on GSH beads preincubated with p53 (250 pmol) in TB with 0.1% Triton X-100 at 4 °C for 1 h, washed, then 50 or 500 pmol FLAG-h-importin α8 or α1 added at 4 °C for 1 h; western blot (Fig. 2B)
[2] = molecular target: T1, GST-h-importin α8 (KPNA7) (human, UniProt A9QM74 1-516); test: pull-down; GST fusions immobilized on GSH beads, 100 pmol FLAG-importin α in 200 μL transport buffer (20 mM HEPES pH 7.3, 110 mM potassium acetate, 2 mM magnesium acetate, 1 mM EGTA, 1 mM DTT) with 0.1% Triton X-100, 4 °C, 1 h; western blot with anti-FLAG and anti-GST (Fig. 1A)
T1 construct: human importin α8 (KPNA7); also called GST-importin α8; IMPα8; source: E. coli Rosetta, purified on GSH beads, bacterially expressed and purified recombinant protein
T1 sequence (A9QM74 whole entry, the tested form may be a part): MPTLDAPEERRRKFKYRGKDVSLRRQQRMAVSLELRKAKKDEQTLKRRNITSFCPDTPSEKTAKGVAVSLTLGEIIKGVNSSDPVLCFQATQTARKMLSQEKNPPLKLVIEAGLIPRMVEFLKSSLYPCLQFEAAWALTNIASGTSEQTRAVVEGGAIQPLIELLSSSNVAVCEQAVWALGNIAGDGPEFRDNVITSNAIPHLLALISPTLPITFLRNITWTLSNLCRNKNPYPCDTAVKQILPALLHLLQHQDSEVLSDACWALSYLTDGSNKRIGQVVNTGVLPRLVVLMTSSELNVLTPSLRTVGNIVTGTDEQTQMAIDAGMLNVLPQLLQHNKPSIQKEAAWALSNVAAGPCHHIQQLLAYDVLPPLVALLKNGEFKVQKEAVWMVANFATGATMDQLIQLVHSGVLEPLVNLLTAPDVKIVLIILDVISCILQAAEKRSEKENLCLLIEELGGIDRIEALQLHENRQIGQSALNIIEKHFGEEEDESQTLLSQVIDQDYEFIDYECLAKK

[3] = molecular target: GST-m-importin α1 (KPNA2) (mouse, UniProt P52293 1-529); test: as above
[4] = molecular target: B1; test: pull-down; GST-h-importin α3 (50 pmol) on GSH beads preincubated with p53 (250 pmol) in TB with 0.1% Triton X-100 at 4 °C for 1 h, washed, then 50 or 500 pmol FLAG-h-importin α8 or α1 added at 4 °C for 1 h; western blot (Fig. 2B)
[5] = molecular target: B1; test: pull-down; GST-h-importin α3 (50 pmol) on GSH beads preincubated with SV40TNLS-GFP (50 pmol) at 4 °C for 1 h, washed, then 50 or 500 pmol FLAG-h-importin α8 or α1 added at 4 °C for 1 h; western blot (Fig. 1B)

B1: binds [1].

B2: binds [2]; binds [3]; binds [4].

B3: binds [5].

— PMC4865633, “Data on dimer formation between importin α subtypes” (Data in Brief, 2016)
